Entries after “also recorded” stand apart in the source; their conditions may differ.
Key:
[1] = Maximum tolerated dose (MTD) in mice; format: in vivo; settings: for Murine single dose MTD (IP): mice, loadings as in Table 3
Text: (§1) All injections were given intraperitoneally (IP). […] The MTD is the maximum tolerated equivalent camptothecin dose.

[2] = tested on: B16 melanoma (B-16-F0); test: Tumor growth delay (TGD), subcutaneous B16 melanoma in C57BL/6 mice; format: in vivo, murine; settings: for relative anti-tumor efficacy (comparison in words): B16 model
Experimental: (§2) Tumors were produced in the […] of the right interscapular region by subcutaneously injecting 1.0×10^5 murine melanoma cells (B-16-F0; ATTC CRL-6322) in a volume of 0.2 ml PBS supplemented with 2% FBS. […] Camptothecin conjugates were dissolved in a 0.1 M Na2HPO4 solution by sonication at 45° C. for 45–60 minutes. Native camptothecins were dissolved in a mixture of 8.3% Cremophor EL/8.3% ethanol in 0.75% saline. All injections were given intraperitoneally (IP). Each treatment group consisted of 10 mice randomly allocated to each group. Tumor volume was calculated according to the formula (length×width×height)/2. Mice with tumors equal to or greater than 2000 mm^3 were euthenized by cervical dislocation. Tumor efficacy of test compounds was determined by calculating the tumor growth delay (TGD): the average time in days for the tumors in the treatment group to reach a fixed volume minus the average time for the tumors in the control group to reach the same volume. An unpaired Student's t-test was done to determine statistical differences. The compounds were tested at different concentrations to determine their MTD. The MTD is the maximum tolerated equivalent camptothecin dose.

[3] = tested on: HT-29 human colon carcinomas; test: Tumor growth delay, HT-29 xenografts in athymic ncr nu/nu mice; settings: for TGD (days to 500 mm^3) HT-29: PG 50 kD
Experimental: as §2
(§3) In addition to the above-mentioned models, one other syngeneic model was used viz. LL/2 Lewis lung (ATTC CRL-1642) and 2 xenogeneic models were used viz. human NCI-H460 lung carcinomas (ATTC HTB-177) and HT-29 human colon carcinomas (ATTC HTB-38). In these xenogeneic models instead of immunocompetent C57BL/6 mice, immunocompromised athymic ncr nu/nu mice were used. Except for the number of tumor cells implanted to generate tumors the experimental protocol and procedures were identical to that for the B-16/F0 model.

[4] = Aqueous solubility of PG-camptothecin conjugates; settings: for Aqueous solubility: % CPT in conjugate (w/w): PG-CPT 14, PG-gly-CPT 37, PG-(10-OAc-CPT) 13, PG-(10-O-CPT) 13, PG-gly-(10-O-CPT) 20, PG-(10-OH-CPT) 19, PG-(9-NH-CPT) 14
[5] = tested on: animal tumor models; test: General comparison of PG-camptothecin conjugates in animal tumor models; set-up: species or system mice; settings: mouse, in vivo
Text: as §1

[6] = tested on: NCI-H460 human non-small cell lung cancer xenografts; test: NCI-H460 xenografts in female nude mice, dosing every 4th day x4; format: in vivo
Experimental: Female nude mice with 7–8 mm subcutaneous NCI-H460 human non-small cell lung cancer xenografts were treated with PG-gly-CPT on days 1, 5, 9, and 13 at a dose of 40 mg/kg 20(S)-camptothecin per injection. The tested dose of 40 mg eq. […] Although there were no deaths, weight loss was approximately 20% of the starting weight. The absolute tumor growth delay (defined as difference in days for tumors to grow from 8 mm to 12 mm between the treated and the control groups) was 43 days for the PG-gly-CPT treated mice.

[7] = tested on: NCI-H322 human lung cancer; test: NCI-H322 human lung cancer s.c. in female nude mice; format: in vivo; settings: 33 kD, 37% loaded, i.v. days 9, 13, 17, 21 at 40 mg/kg 20(S)-camptothecin equivalent
Experimental: The antitumor activity of PG-gly-CPT (33 kD, 37% loaded) on NCI-H322 (ATTC CRL-5806) human lung cancer inoculated s.c. in female nude mice was studied. The drug was injected i.v. on days 9, 13, 17 and 21 at a 20(S)-camptothecin equivalent dose of 40 mg/kg when tumors measured 7–8 mm in diameter. The TGD was 40 days.

[8] = tested on: human NCI-H460 lung carcinomas; test: Tumor growth delay, NCI-H460 xenografts in athymic ncr nu/nu mice; format: in vivo; settings: PG 50 kD
Experimental: as §2, §3

[9] = tested on: NCI-H1299 human lung cancer cells; test: NCI-H1299 human lung cancer s.c. in female nude mice; settings: 30 mg eq. 20(S)-camptothecin every 4th day x4
Experimental: 20(S)-camptothecin/kg in the prior experiment in nude mice, the dose was lowered to 30 mg eq. 20(S)-camptothecin every 4th day×4.

[10] = Table 4, PG 50 kD (PG-CPT: 33 kD)
[11] = second experiment, i.p., same schedule
[12] = 40 mg eq. 20(S)-camptothecin/kg every 4th day x4
[13] = CPT loading 19%, dose 33 mg CPT/kg
[14] = CPT loading 33%, dose 38 mg CPT/kg
[15] = CPT loading 39%, dose 40 mg CPT/kg
[16] = CPT loading 47%, dose 40 mg CPT/kg
[17] = CPT loading 30%, dose 34 mg CPT/kg

PG-(2-O-acetyl)-CPT
MTD [1, 10]: ≧80 mg CPT/kg
TGD (days to 500 mm^3) B16 ([2]; CPT loading 15%, dose 80 mg CPT/kg, PG 50 kD): 3.8 days

PG-(4-NH-butyryl)-CPT
MTD [1, 10]: ≧80 mg CPT/kg
TGD (days to 500 mm^3) B16 ([2]; CPT loading 32%, dose 80 mg CPT/kg, PG 50 kD): 0.9 days

PG-(4-O-butyryl)-CPT
TGD (days to 500 mm^3) HT-29 ([3]; CPT loading 24%, dose 36 mg CPT/kg): 13.1 days
MTD [1, 10]: ~36 mg CPT/kg
TGD (days to 500 mm^3) B16 ([2]; CPT loading 32%, dose 37 mg CPT/kg, PG 50 kD): 2.8 days

PG-(9-NH-CPT)
Aqueous solubility [4]: 7000 µg/mL
overall efficacy, tolerability and solubility (in words) [5]: active
MTD ([1]; mouse, in vivo): > 25 mg eq. 20(S)-9-aminocamptothecin/kg
Murine single dose MTD (IP) [1]: >25 mg eq. CPT/kg

PG-(10-O-CPT)
Aqueous solubility [4]: 10000 µg/mL
Murine single dose MTD (IP) [1]: 50 mg eq. CPT/kg

PG-(10-OAc-CPT)
aqueous solubility / solution behaviour (in words) [4]: solution was very viscous
Aqueous solubility [4]: 10000 µg/mL
time after which the compound precipitated out of solution ([4]; dosing solution): approx. 30 min
Murine single dose MTD (IP) [1]: 10–20 mg eq. CPT/kg
TGD ([2]; 50 mg eq. 20(S)-10-hydroxycamptothecin/kg, p<0.01 compared to control): 5.3 days
relative anti-tumor efficacy (comparison in words) [2]: appeared more active at 50 mg eq. 20(S)-10-hydroxycamptothecin/kg than PG-gly-(10-O-CPT)

PG-(10-OH-CPT)
Aqueous solubility [4]: >10000 µg/mL
Murine single dose MTD (IP) [1]: >50 mg eq. CPT/kg
relative anti-tumor efficacy (comparison in words) [2]: not as effective as the PG-(10-OAc-CPT) or the PG-gly-(10-OH-CPT)

PG-(β-ala)-CPT
MTD [1, 10]: ≧67 mg CPT/kg
TGD (days to 500 mm^3) B16 ([2]; CPT loading 31%, dose 67 mg CPT/kg, PG 50 kD): 1.1 days

PG-(γ-glu)-CPT
MTD [1, 10]: ≧54 mg CPT/kg
TGD (days to 500 mm^3) B16 ([2]; CPT loading 21%, dose 54 mg CPT/kg, PG 50 kD): 0.8 days

PG-CPT
toxicity observations [6, 11]: without observable toxicity
tumor growth delay [6, 11]: substantial growth delay
MTD [1, 10]: ≧80 mg CPT/kg
Murine single dose MTD (IP) [1]: 60–80 mg eq. CPT/kg
TGD (days to 500 mm^3) B16 ([2]; CPT loading 20%, dose 80? mg CPT/kg, PG 33 kD): 4.0 days

PG-ala-CPT
MTD [1, 10]: ≧73 mg CPT/kg
TGD (days to 500 mm^3) B16 ([2]; CPT loading 20%, dose 73 mg CPT/kg, PG 50 kD): 2.2 days

PG-gly-(10-O-CPT)
Aqueous solubility [4]: >10000 µg/mL

PG-gly-(10-OH-CPT)
relative anti-tumor efficacy (comparison in words) [2]: approximately twice as efficacious as PG-gly-(7-Et-10-OH-CPT)

PG-gly-CPT
toxicity observations [6, 12]: no deaths; also recorded: modestly exceeded the MTD
weight loss, of the starting weight [6, 12]: approximately 20%
absolute tumor growth delay (tumors to grow from 8 mm to 12 mm, treated vs control) ([6]; 40 mg/kg 20(S)-camptothecin per injection, days 1, 5, 9, 13): 43 days
TGD [7]: 40 days
TGD (days to 500 mm^3) HT-29 [3, 13]: 4.1 days
TGD (days to 500 mm^3) HT-29 ([3]; CPT loading 33%, dose 33 mg CPT/kg): 11.9 days
TGD (days to 500 mm^3) HT-29 [3, 14]: 20.3 days
TGD (days to 500 mm^3) HT-29 [3, 15]: 25.8 days
TGD (days to 500 mm^3) HT-29 [3, 16]: 5.8 days
tolerability of repeated dosing ([3]; ip, 4 times with a weekly interval, total dose 3 times the single dose): very well tolerated
TGD (days to 500 mm^3) NCI-H460 [8, 14]: 15.8 days
TGD (days to 500 mm^3) NCI-H460 [8, 15]: 38.5 days
TGD (days to 500 mm^3) NCI-H460 [8, 16]: 6.5 days
MTD in male ncr nu/nu mice ([1]; PG 50 kD, (mono) glycine linker, 35–37% 20(S)-camptothecin): 40 mg/kg 20(S)-camptothecin equivalents
MTD [1, 10]: ~40 mg CPT/kg
Murine single dose MTD (IP) [1]: 60–80 mg eq. CPT/kg
TGD [9]: 32 days
tolerability [9]: well-tolerated
TGD (days to 500 mm^3) B16 ([2]; CPT loading 32%, dose 35 mg CPT/kg, PG 50 kD): 3.3 days

PG-gly-gly-CPT
TGD (days to 500 mm^3) HT-29 [3, 13]: 4.5 days
MTD [1, 10]: ≧33 mg CPT/kg

PG-gly-gly-gly-CPT
TGD (days to 500 mm^3) HT-29 [3, 13]: 6.9 days
TGD (days to 500 mm^3) HT-29 [3, 17]: 28.4 days
TGD (days to 500 mm^3) NCI-H460 [8, 17]: 38.5 days
MTD [1, 10]: ≦34 mg CPT/kg

From US7173041B2, “Polyglutamic acid-camptothecin conjugates and methods of preparation” (priority 2000, dated 2007)
